# Data from patent publication US5436138A, “Method for protein N-myristoylation” (Washington University, priority 1993, dated 1995).
# Positions count from the first letter of the chain named. Where a SMILES comes first, the peptide text is derived from it.
# Key:
# [1] = target: T1, E. coli-derived S. cerevisiae NMT (Total E. coli NMT) (Saccharomyces cerevisiae, UniProt P14743, S2A); test: coupled in vitro assay for NMT activity, Total E. coli NMT; assay type: biochemical; details: 15 μM myristate; for Vmax, Total E. coli NMT: peptide substrate, percentage of Vmax with GNAAAARR and myristoyl-CoA; for Km: peptide substrate varied
# T1 construct: intact 53 kDa (codon 2 Ser to Ala from cloning) plus 45 kDa truncated form
# T1 sequence (P14743 1-455 S2A): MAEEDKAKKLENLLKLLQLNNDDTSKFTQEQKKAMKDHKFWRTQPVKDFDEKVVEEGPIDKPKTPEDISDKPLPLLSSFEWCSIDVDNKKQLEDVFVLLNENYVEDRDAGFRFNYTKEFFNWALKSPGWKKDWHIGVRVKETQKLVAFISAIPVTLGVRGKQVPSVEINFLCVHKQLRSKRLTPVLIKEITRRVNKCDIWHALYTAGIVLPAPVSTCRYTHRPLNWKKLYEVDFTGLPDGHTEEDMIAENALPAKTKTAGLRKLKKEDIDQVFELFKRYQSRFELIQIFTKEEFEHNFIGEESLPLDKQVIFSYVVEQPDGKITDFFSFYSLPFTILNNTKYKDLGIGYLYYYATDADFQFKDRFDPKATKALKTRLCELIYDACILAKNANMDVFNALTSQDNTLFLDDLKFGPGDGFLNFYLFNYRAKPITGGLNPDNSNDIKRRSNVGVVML
# Procedure: (§1) In vitro assay system for NMT activity. To assess the peptide and acyl-CoA substrate specificities of E. coli-derived S. cerevisiae NMT, crude lysates or partially purified enzyme preparations were added to a coupled in vitro assay system [Towler and Glaser, Proc. Natl. Acad. Sci. USA 83, 2812-2816 (1986)]. The first step of this assay involves enzymatic conversion of radiolabeled fatty acids to their CoA thioesters by Pseudomonas acyl-CoA ligase. This ligase is largely nonspecific for fatty acid substrates [Shimizu et al., Anal. Biochem. 107, 193-198 (1980)]. Octapeptide substrates and NMT were then added to produce acylpeptides. Acylpeptides were purified from the reaction mixture by trichloroacetic acid/methanol precipitation and C18 reverse phase HPLC using a linear gradient of acetonitrile in water [Towler and Glaser, Proc. Natl. Acad. Sci. USA 83, 2812-2816 (1986)].
# (§2) The peptide Km and Vmax values shown in the above Table I are averages obtained from 4- or 5-point Lineweaver-Burke plots. These plots were produced using data generated in at least three independent in vitro NMT assays. Varying concentrations of peptides were assayed with 15 μM myristate to determine peptide Km and Vmax values. […] Yeast NMT was from a 570 fold purified preparation [Towler et al., Proc. Natl. Acad. Sci. USA 84, 2708-2712 (1987)]. Synthetic peptide substrates are represented by their conventional one letter amino acid code. […] ND=not determined.
# [2] = target: T2, 45 kDa E. coli NMT (NMT missing the NH2-terminal 39 residues) (Saccharomyces cerevisiae, UniProt P14743); test: coupled in vitro assay for NMT activity, 45 kDa E. coli NMT; assay type: biochemical, S. cerevisiae; details: for Km: peptide substrate varied; for Vmax, 45 kDa E. coli NMT: percentage of Vmax with GNAAAARR and myristoyl-CoA
# T2 construct: S2A lies in the removed part
# T2 sequence (P14743 40-455): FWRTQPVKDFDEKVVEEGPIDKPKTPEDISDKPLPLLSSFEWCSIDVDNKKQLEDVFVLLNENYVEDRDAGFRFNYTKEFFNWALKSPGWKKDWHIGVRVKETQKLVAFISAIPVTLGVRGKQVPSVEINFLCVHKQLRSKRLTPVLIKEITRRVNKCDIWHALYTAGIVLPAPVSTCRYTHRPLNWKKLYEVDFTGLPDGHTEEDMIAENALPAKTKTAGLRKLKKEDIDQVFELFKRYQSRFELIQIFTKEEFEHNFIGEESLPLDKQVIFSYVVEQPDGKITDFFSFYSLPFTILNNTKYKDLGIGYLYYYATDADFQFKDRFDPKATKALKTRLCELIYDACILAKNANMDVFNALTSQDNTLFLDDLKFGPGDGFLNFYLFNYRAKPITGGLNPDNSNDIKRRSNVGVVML
# Procedure: as §1
# To obtain a homogenous preparation of the enzyme, E. coli-produced NMT was further purified by Mono S fast protein liquid chromatography (FPLC).
# as §2
# [3] = target: T3, Yeast NMT (partially purified from S. cerevisiae) (Saccharomyces cerevisiae, UniProt P14743); test: coupled in vitro assay for NMT activity, Yeast NMT; assay type: biochemical; details: for Vmax, Yeast NMT: percentage of Vmax with GNAAAARR and myristoyl-CoA; for Km: peptide substrate varied, 570 fold purified preparation
# T3 sequence (P14743 1-455): T1 sequence (P14743 1-455 S2A) with A2S
# Procedure: as §1, §2
# [4] = target: T4, yeast NMT coexpressed with murine PK-A C-subunit in E. coli strain JM101 (Saccharomyces cerevisiae, UniProt P14743, S2A); test: [3H]Fatty acid labeling of PK-A C-subunit produced in E. coli coexpressing yeast NMT1; assay type: cell-based, S. cerevisiae; details: for incorporation of [3H]fatty acid into the C-subunit of PK-A: E. coli JM101 with NMT1 and wild type Cα plasmids after induction, SDS-PAGE and fluorography
# T4 construct: metabolic labeling in cells
# Procedure: [^3 H]Fatty acid labeling of PK-A C-subunit produced in E. coli. Four ml cultures of the double transformants were shaken at 37° C. to an OD600 of 0.5 in LB broth+100 μg/ml ampicillin and 100 μg/ml kanamycin sulfate. Isopropyl-β-D-thiogalactopyranoside (IPTG) was then added to a final concentration of 1 mM to induce NMT production (see Results, below). When the cultures reached OD600 =1.0 (approximately 40 min later), nalidixic acid was added to a final concentration of 50 μg/ml to induce C-subunit production (see Results, below). [^3 H]Myristate (New England Nuclear; 39.3 Ci/mmol, 113 μCi added per ml of culture), [^3 H]palmitate (New England Nuclear; 30 Ci/mmol, 143 μCi/ml), or [^3 H]10-(propoxy)decanoate [Heuckeroth and Gordon, Proc. Natl. Acad. Sci. USA 86, 5262-5266 (1989)] (31.7 Ci/mmol, 800 μCi/ml) was added simultaneously with the nalidixic acid. Cultures were shaken for an additional 20 min at 37° C. and the cells were harvested by centrifugation. Lysates were prepared by boiling E. coli contained in the pellet for 10 min in 40 μL of a solution of 125 mM Tris, pH 8.0, 4% SDS, 20% glycerol, 10% β-mercaptoethanol, and 0.2M dithiothreitol. Cell debris was removed by centrifugation and 15 μl aliquots of the supernatant were subjected to SDS-PAGE [Laemmli, Nature 227, 680-685 (1970)] and subsequent fluorography using EN^3 HANCE (New England Nuclear) autoradiography enhancer. For Western blot analyses, 50 μg of reduced and denatured lysate proteins, prepared from unlabeled E. coli producing Gly^2 -C-subunit or Ala^2 -C-subunit, were separated by SDS-PAGE, electroblotted onto nitrocellulose [Burnette, Anal. Biochem. 112, 195-230 (1981)], and the filters probed with polyclonal, monospecific rabbit antisera raised against purified mouse C-subunit. Antigen-antibody complexes were visualized with ^125 I-protein A [Burnette, supra.].
# [5] = peptide substrate, 15 μM myristate
# [6] = fatty acyl-CoA substrate, 60 μM GNAAAARR
compound,measurement,setting,value
C[C@H](NC(=O)[C@H](C)NC(=O)[C@H](C)NC(=O)[C@H](CC(N)=O)NC(=O)CN)C(=O)N[C@@H](C)C(=O)N[C@@H](CCCNC(=N)N)C(=O)N[C@@H](CCCNC(=N)N)C(N)=O (H-GNAAAARR-NH2),"Vmax, Total E. coli NMT",[1],100%
same,Km,[2]; 15 μM myristate,62.5 µM
same,"Vmax, 45 kDa E. coli NMT",[2]; [5],100%
same,"Vmax, Yeast NMT",[3]; [5],100%
C[C@H](NC(=O)[C@H](C)NC(=O)[C@H](CC(N)=O)NC(=O)CN)C(=O)N[C@@H](CO)C(=O)N[C@@H](C)C(=O)N[C@@H](CCCNC(=N)N)C(=O)N[C@@H](CCCNC(=N)N)C(N)=O (H-GNAASARR-NH2),"Vmax, Total E. coli NMT",[1],3.6%
same,"Vmax, 45 kDa E. coli NMT",[2]; [5],4.9%
same,reduction in apparent Km,"[2]; relative to GNAAAARR-NH2, Mono S purified 45 kDa NMT",100 fold
same,"Vmax, Yeast NMT",[3]; [5],3%
CCCOCCCCCCCCCC(=O)SCCNC(=O)CCNC(=O)[C@H](O)C(C)(C)COP(=O)(O)OP(=O)(O)OC[C@H]1O[C@@H](n2cnc3c(N)ncnc32)[C@H](O)[C@@H]1OP(=O)(O)O [11-oxamyristoyl-CoA],"Vmax, 45 kDa E. coli NMT",[2]; [6],450%
same,"Vmax, Yeast NMT",[3]; [6],270%
CCCCCCCCCCCCCC(=O)SCCNC(=O)CCNC(=O)[C@H](O)C(C)(C)COP(=O)(O)OP(=O)(O)OC[C@H]1O[C@@H](n2cnc3c(N)ncnc32)[C@H](O)[C@@H]1OP(=O)(O)O [Myristoyl-CoA],"Vmax, 45 kDa E. coli NMT",[2]; [6],100%
same,"Vmax, Yeast NMT",[3]; [6],100%
CCCCCCCCCCCCCCCC(=O)SCCNC(=O)CCNC(=O)[C@H](O)C(C)(C)COP(=O)(O)OP(=O)(O)OC[C@H]1O[C@@H](n2cnc3c(N)ncnc32)[C@H](O)[C@@H]1OP(=O)(O)O [Palmitoyl-CoA],"Vmax, 45 kDa E. coli NMT",[2]; [6],22.4%
same,"Vmax, Yeast NMT",[3]; [6],21%
"CCCOCCCCCCCCCC(=O)O [[^3 H]10-(propoxy)decanoic acid, 10-(propoxy)decanoic acid]",incorporation of [3H]fatty acid into the C-subunit of PK-A,[4],effective alternative substrate for NMT that could be incorporated into the C-subunit of PK-A
same,incorporation of [3H]fatty acid into the C-subunit of PK-A,[4]; listed as [^3 H]11-oxamyristate,could also be labeled in a Gly^2 dependent manner
"CCCCCCCCCCCCCC(=O)O [[^3 H]Myristic acid, Myristic acid]",Pronase E digestion product of the labeled C-subunit,[4]; C18 reverse-phase HPLC,co-migrated with the chemically synthesized [^3 H]myristoylglycine standard
same,incorporation of [3H]fatty acid into the C-subunit of PK-A,[4],efficiently linked to the Gly^1 residue of the C-subunit
same,incorporation of [3H]fatty acid into the C-subunit of PK-A,[4]; listed as [^3 H]myristic acid,a 40 kDa protein was metabolically labeled
same,overall efficiency of NMT-catalyzed linkage of the myristoyl moiety to the C-subunit,"[4]; in E. coli, estimated from Western blot, incorporated label and specific activity",~100%
ANAAAARR,"Vmax, Total E. coli NMT",[1],Not a substrate
same,"Vmax, 45 kDa E. coli NMT",[2]; [5],Not a substrate
same,"Vmax, Yeast NMT",[3]; [5],Not a substrate
"ASSKSKPK [synthetic octapeptide, one letter amino acid code]","Vmax, Total E. coli NMT",[1],Not a substrate
same,"Vmax, 45 kDa E. coli NMT",[2]; [5],Not a substrate
same,"Vmax, Yeast NMT",[3]; [5],Not a substrate
"GDAAAARR [synthetic octapeptide substrate, one letter amino acid code]",Km,[1],645 µM
same,"Vmax, Total E. coli NMT",[1],4.2%
same,"Vmax, 45 kDa E. coli NMT",[2]; [5],< 2%
same,"Vmax, Yeast NMT",[3]; [5],< 2%
"GNAADARR [synthetic octapeptide substrate, one letter amino acid code]",Km,[1],503 µM
same,"Vmax, Total E. coli NMT",[1],4.9%
same,"Vmax, 45 kDa E. coli NMT",[2]; [5],< 2%
same,"Vmax, Yeast NMT",[3]; [5],< 2%
"GPAAAARR [synthetic octapeptide substrate, one letter amino acid code]",Km,[1],7100 µM
same,"Vmax, Total E. coli NMT",[1],21.6%
same,"Vmax, 45 kDa E. coli NMT",[2]; [5],< 2%
same,"Vmax, Yeast NMT",[3]; [5],< 2%
"GSAAAARR [synthetic octapeptide substrate, one letter amino acid code]",Km,[1],697 µM
same,"Vmax, Total E. coli NMT",[1],27.6%
same,Km,[3]; 15 μM myristate,1700 µM
same,"Vmax, Yeast NMT",[3]; [5],50%
"GSAASARR [synthetic octapeptide substrate, one letter amino acid code]",Km,[1],2.1 µM
same,"Vmax, Total E. coli NMT",[1],29%
same,Km,[3]; 15 μM myristate,3 µM
same,"Vmax, Yeast NMT",[3]; [5],34%
"GSSKSKPK [synthetic octapeptide substrate, one letter amino acid code]",Km,[1],48.5 µM
same,"Vmax, Total E. coli NMT",[1],33%
same,Km,[2]; 15 μM myristate,66 µM
same,"Vmax, 45 kDa E. coli NMT",[2]; [5],52%
same,Km,[3]; 15 μM myristate,40 µM
same,"Vmax, Yeast NMT",[3]; [5],43%
"GYAAAARR [synthetic octapeptide, one letter amino acid code]","Vmax, Total E. coli NMT",[1],< 2%
same,"Vmax, 45 kDa E. coli NMT",[2]; [5],< 2%
same,"Vmax, Yeast NMT",[3]; [5],Not a substrate
MGNAAAARR,"Vmax, Total E. coli NMT",[1],Not a substrate
same,"Vmax, 45 kDa E. coli NMT",[2]; [5],Not a substrate
same,"Vmax, Yeast NMT",[3]; [5],Not a substrate
